# Laboratory results taken from US20260062456A1 (ALPINE IMMUNE SCIENCES, published 2026).
# Positions count from the first letter of the chain named. In names and notes the source's numbering stands.
# T1: human TIGIT stably expressed on Jurkat/IL-2 reporter cells (Jurkat/TIGIT cells) (human, UniProt Q495A1 22-244)
# T1 sequence (looked up): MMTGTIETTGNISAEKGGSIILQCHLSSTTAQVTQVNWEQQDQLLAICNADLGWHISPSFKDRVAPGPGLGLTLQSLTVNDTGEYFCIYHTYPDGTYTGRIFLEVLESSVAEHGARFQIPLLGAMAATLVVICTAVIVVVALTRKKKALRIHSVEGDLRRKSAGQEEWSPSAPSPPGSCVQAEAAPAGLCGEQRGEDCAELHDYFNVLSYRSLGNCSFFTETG
# B1: PD-L1/CD155 Stack 1: (CD155 IgV) (G4S)2 Fc (G4S)3 (PD-L1 IgV) (Fc fusion)
# chain: WPPPGTGDVVVQAPTQVSGFLGDSVTLPCYLQVPNMEVTHVSQLTWARHGESGSMAVFHQTQGPWYAESKRLEFVAARLGAELRNASLRMFGLRVEDEGNYTCQFVTFPQRSRSVDIWLRVLGGGGSGGGGSEPKSSDKTHTCPPCPAPEAEGAPSVFLFPPKPKDTLMISRTPEVTCVVVDVSHEDPEVKFNWYVDGVEVHNAKTKPREEQYNSTYRVVSVLTVLHQDWLNGKEYKCKVSNKALPAPIEKTISKAKGQPREPQVYTLPPSRDELTKNQVSLTCLVKGFYPSDIAVEWESNGQPENNYKTTPPVLDSDGSFFLYSKLTVDKSRWQQGNVFSCSVMHEALHNHYTQKSLSLSPGKGGGGSGGGGSGGGGSFTVTVPKDLYVVEYGSNMTIECKFPVEKQLDLAALIVYWEMEGKDIIQFVHGEEDQKAQHSSYRQRARLLKDQLSLGNAALQITDVKLQDAGVYRCMISYGGGADYKRITVKVNA
# B2: PD-L1/CD155 Stack 2: (PD-L1 IgV) (G4S)2 Fc(G4S)3 (CD155 IgV) (Fc fusion)
# chain: FTVTVPKDLYVVEYGSNMTIECKFPVEKQLDLAALIVYWEMEGKDIIQFVHGEEDQKAQHSSYRQRARLLKDQLSLGNAALQITDVKLQDAGVYRCMISYGGGADYKRITVKVNAGGGGSGGGGSEPKSSDKTHTCPPCPAPEAEGAPSVFLFPPKPKDTLMISRTPEVTCVVVDVSHEDPEVKFNWYVDGVEVHNAKTKPREEQYNSTYRVVSVLTVLHQDWLNGKEYKCKVSNKALPAPIEKTISKAKGQPREPQVYTLPPSRDELTKNQVSLTCLVKGFYPSDIAVEWESNGQPENNYKTTPPVLDSDGSFFLYSKLTVDKSRWQQGNVFSCSVMHEALHNHYTQKSLSLSPGKGGGGSGGGGSGGGGSWPPPGTGDVVVQAPTQVSGFLGDSVTLPCYLQVPNMEVTHVSQLTWARHGESGSMAVFHQTQGPWYAESKRLEFVAARLGAELRNASLRMFGLRVEDEGNYTCQFVTFPQRSRSVDIWLRVL
# B3: variant PD-L1 ECD-Fc E27D, N45D, T183A, I188V (Fc fusion, not shown: a dimerising Fc or GST)
# chain: FTVTVPKDLYVVEYGSNMTIECKFPVDKQLDLAALIVYWEMEDKDIIQFVHGEEDLKVQHSSYRQRARLLKDQLSLGNAALQITDVKLQDAGVYRCMISYGGADYKRITVKVNAPYNKINQRILVVDPVTSEHELTCQAEGYPKAEVIWTSSDHQVLSGKTTTTNSKREEKLFNVTSTLRINATTNEVFYCTFRRLDPEENHTAELVIPELPLAHPPNER
# B4: variant PD-L1 ECD-Fc I98T, F173Y, L196S (Fc fusion, not shown: a dimerising Fc or GST)
# chain: B3 chain with D27E, D45N, I98T, F173Y, A183T, V188I, L196S
# B5: variant PD-L1 ECD-Fc K23N, N45D, Q73R, T163I (Fc fusion, not shown: a dimerising Fc or GST)
# chain: B3 chain with K23N, D27E, Q73R, T163I, A183T, V188I
# B6: variant PD-L1 ECD-Fc K23N, N45D, S75P, N120S (Fc fusion, not shown: a dimerising Fc or GST)
# chain: B3 chain with K23N, D27E, S75P, N120S, A183T, V188I
# B7: variant PD-L1 ECD-Fc K28E, N45D, W149R, S158G, P198T (Fc fusion, not shown: a dimerising Fc or GST)
# chain: B3 chain with D27E, K28E, W149R, S158G, A183T, V188I, P198T
# B8: variant PD-L1 ECD-Fc K28R, N45D, V129D, T163N, R195T (Fc fusion, not shown: a dimerising Fc or GST)
# chain: B3 chain with D27E, K28R, V129D, T163N, A183T, V188I, R195T
# B9: variant PD-L1 ECD-Fc M41K, D43G, K44E, N45D, R195G, N201D (Fc fusion, not shown: a dimerising Fc or GST)
# chain: B3 chain with D27E, M41K, D43G, K44E, A183T, V188I, R195G, N201D
# B10: variant PD-L1 ECD-Fc M41K, D43G, N45D, R64S, R195G (Fc fusion, not shown: a dimerising Fc or GST)
# chain: B3 chain with D27E, M41K, D43G, R64S, A183T, V188I, R195G
# B11: variant PD-L1 ECD-Fc M41K, D43G, N45D, R64S, S99G (Fc fusion, not shown: a dimerising Fc or GST)
# chain: B3 chain with D27E, M41K, D43G, R64S, S99G, A183T, V188I
# B12: variant PD-L1 ECD-Fc N45D, E134G, L213P (Fc fusion, not shown: a dimerising Fc or GST)
# chain: B3 chain with D27E, E134G, A183T, V188I, L213P
# B13: variant PD-L1 ECD-Fc N45D, F173I, S177C (Fc fusion, not shown: a dimerising Fc or GST)
# chain: B3 chain with D27E, F173I, S177C, A183T, V188I
# B14: variant PD-L1 ECD-Fc N45D, G52V, Q121L, P198S (Fc fusion, not shown: a dimerising Fc or GST)
# chain: B3 chain with D27E, G52V, Q121L, A183T, V188I, P198S
# B15: variant PD-L1 ECD-Fc N45D, G102D, R194W, R195G (Fc fusion, not shown: a dimerising Fc or GST)
# chain: B3 chain with D27E, G102D, A183T, V188I, R194W, R195G
# B16: variant PD-L1 ECD-Fc N45D, I148V, R195G (Fc fusion, not shown: a dimerising Fc or GST)
# chain: B3 chain with D27E, I148V, A183T, V188I, R195G
# B17: variant PD-L1 ECD-Fc N45D, I148V, R195G, N201D (Fc fusion, not shown: a dimerising Fc or GST)
# chain: B3 chain with D27E, I148V, A183T, V188I, R195G, N201D
# B18: variant PD-L1 ECD-Fc N45D, K111T, R195G (Fc fusion, not shown: a dimerising Fc or GST)
# chain: B3 chain with D27E, K111T, A183T, V188I, R195G
# B19: variant PD-L1 ECD-Fc N45D, K111T, T183A, I188V (Fc fusion, not shown: a dimerising Fc or GST)
# chain: B3 chain with D27E, K111T
# B20: variant PD-L1 ECD-Fc N45D, N113Y, R195S (Fc fusion, not shown: a dimerising Fc or GST)
# chain: B3 chain with D27E, N113Y, A183T, V188I, R195S
# B21: variant PD-L1 ECD-Fc N45D, N165Y, E170G (Fc fusion, not shown: a dimerising Fc or GST)
# chain: B3 chain with D27E, N165Y, E170G, A183T, V188I
# B22: variant PD-L1 ECD-Fc N45D, Q89R, I98V (Fc fusion, not shown: a dimerising Fc or GST)
# chain: B3 chain with D27E, Q89R, I98V, A183T, V188I
# B23: variant PD-L1 ECD-Fc N45D, R68L, F173L, D197G, P198S (Fc fusion, not shown: a dimerising Fc or GST)
# chain: B3 chain with D27E, R68L, F173L, A183T, V188I, D197G, P198S
# B24: variant PD-L1 ECD-Fc N45D, S75P, P198S (Fc fusion, not shown: a dimerising Fc or GST)
# chain: B3 chain with D27E, S75P, A183T, V188I, P198S
# B25: variant PD-L1 ECD-Fc N45D, S99G, C137R, V207A (Fc fusion, not shown: a dimerising Fc or GST)
# chain: B3 chain with D27E, S99G, C137R, A183T, V188I, V207A
# B26: variant PD-L1 ECD-Fc N45D, S131F, P198S (Fc fusion, not shown: a dimerising Fc or GST)
# chain: B3 chain with D27E, S131F, A183T, V188I, P198S
# B27: variant PD-L1 ECD-Fc N45D, T163I, K167R, R195G (Fc fusion, not shown: a dimerising Fc or GST)
# chain: B3 chain with D27E, T163I, K167R, A183T, V188I, R195G
# B28: variant PD-L1 ECD-Fc N45D, T183A, T192S, R194G (Fc fusion, not shown: a dimerising Fc or GST)
# chain: B3 chain with D27E, V188I, T192S, R194G
# B29: variant PD-L1 ECD-Fc N45D, V50A, I119T, K144E (Fc fusion, not shown: a dimerising Fc or GST)
# chain: B3 chain with D27E, V50A, I119T, K144E, A183T, V188I
# B30: variant PD-L1 ECD-Fc N45D, V50A, I148V, R195G, N201D (Fc fusion, not shown: a dimerising Fc or GST)
# chain: B3 chain with D27E, V50A, I148V, A183T, V188I, R195G, N201D
# B31: variant PD-L1 ECD-Fc N45D, V50A, L124S, K144E, L179P, R195G (Fc fusion, not shown: a dimerising Fc or GST)
# chain: B3 chain with D27E, V50A, L124S, K144E, L179P, A183T, V188I, R195G
# B32: variant PD-L1 ECD-Fc N45D, V50A, R195T (Fc fusion, not shown: a dimerising Fc or GST)
# chain: B3 chain with D27E, V50A, A183T, V188I, R195T
# B33: variant PD-L1 ECD-Fc V11E, N45D, T130A, P198T (Fc fusion, not shown: a dimerising Fc or GST)
# chain: B3 chain with V11E, D27E, T130A, A183T, V188I, P198T
# Target: T1, human TIGIT stably expressed on …
# Assay: cell-based or functional assay
Binder,Fold Increase Compared to non-stack variant CD155 IgV-Fc control [fold],Fold Increase Compared to non-stack variant PD-L1 IgV-Fc control [fold],Fold Increase Compared to variant PD-L1 IgV-Fc and variant CD155 IgV-Fc [fold],RLU [RLU]
B1,1.7,0.6,0.8,573
B2,2.8,1,1.4,962

# Target: T2, human PD-1 stably expressed on Jurkat/IL-2 reporter cells (Jurkat/PD-1 cells) (human, UniProt Q15116 25-288)
# Assay: cell-based or functional assay
# T2 sequence (Q15116 25-288): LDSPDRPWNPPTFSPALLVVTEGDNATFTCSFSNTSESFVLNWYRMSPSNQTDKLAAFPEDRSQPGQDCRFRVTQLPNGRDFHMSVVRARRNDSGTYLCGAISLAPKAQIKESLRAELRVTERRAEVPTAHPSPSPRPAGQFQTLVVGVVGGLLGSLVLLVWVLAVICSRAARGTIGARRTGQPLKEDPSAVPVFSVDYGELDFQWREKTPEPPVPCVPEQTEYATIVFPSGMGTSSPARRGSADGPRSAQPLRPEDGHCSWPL
Binder,Fold Increase Compared to non-stack variant CD155 IgV-Fc control [fold],Fold Increase Compared to non-stack variant PD-L1 IgV-Fc control [fold],Fold Increase Compared to variant PD-L1 IgV-Fc and variant CD155 IgV-Fc [fold],RLU [RLU]
B1,1.7,0.6,0.8,573
B2,2.8,1,1.4,962

# Target: T2, human PD-1 stably expressed on …
# Assay: flow cytometry, Jurkat/PD-1 cells
Binder,Fold Increase over WT PD-L1 ECD-Fc [fold],MFI at 20 nM conc. [MFI]
B3,26.6,133000
B4,0,236
B5,27.8,139000
B6,26.4,132000
B7,0.1,691
B8,27.4,137000
B9,28.9,145000
B10,27.4,137000
B11,26.9,135000
B12,0.5,2260
B13,0.4,2200
B14,0.1,296
B15,2.7,13400
B16,21.8,109000
B17,26.1,131000
B18,13.1,65700

Binder,Fold Increase over WT PD-L1 ECD-Fc [fold],MFI at 20 nM conc. [MFI]
B19,21.7,109000
B20,22.4,112000
B21,17.8,89000
B22,18.1,90500
B23,11.8,59300
B24,25.9,130000
B25,0.2,834
B26,23.2,116000
B27,26.7,134000
B28,0.3,1350
B29,6.8,34200
B30,26.2,131000
B31,3.6,18200
B32,28.3,142000
B33,27.4,137000
